# Data as given in patent publication US20230212319A1, “NOVEL ANTIGEN BINDING DOMAINS AND SYNTHETIC ANTIGEN RECEPTORS INCORPORATING THE SAME” (University of Southern California, priority 2020, published 2023).
# Positions count from the first letter of the chain named.
# B1: 22068 (protein)
# chain: MALPVTALLLPLALLLHAARPQLQLQESGPGLVKPSETLSLTCTVSGDSISSGDYYWGWIRQPPGKGLEWIGHIYYSGVTYYNPSLKSRVTISVDTSRNQFSLKLSSVTAADTAVYYCTREDSSNWRSRGQGTLVTVSSLEGGGGSGGGGSGGGGSVEDLKNVFPPEVAVFEPSKAEIAHTQKATLVCLATGFYPDHVELSWWVNGKEVHSGVCTDPQPLKEQPALNDSRYCLSSRLRVSATFWQNPRNHFRCQVQFYGLSENDEWTQDRAKPVTQIVSAEAWGRADCGITSASYHQGVLSATILYEILLGKATLYAVLVSALVLMAMVKRKDSRGRAKRSGSGATNFSLLKQAGDVEENPGPTSMDWIWRILFLVGAATGAHSFEVQLLESGGGLIQPGGSLRLSCAASGFTFSSHAMTWVRQAPGKGLEWVSAISGSGDYTHYADSVKGRFTISRDNSKNTVYLQMNSLRAEDSAVYYCAKDEDGGSLLGHRGQGTLVTVSSTRIQNPDPAVYQLRDSKSSDKSVCLFTDFDSQTNVSQSKDSDVYITDKCVLDMRSMDFKSNSAVAWSNKSDFACANAFNNSIIPEDTFFPSPESSCDVKLVEKSFETDTNLNFQNLSVIGFRILLLKVAGFNLLMTLRLWSSRAKRSGSGVKQTLNFDLLKLAGDVESNPGPSRGHMTEYKPTVRLATRDDVPRAVRTLAAAFADYPATRHTVDPDRHIERVTELQELFLTRVGLDIGKVWVADDGAAVAVWTTPESVEAGAVFAEIGPRMAELSGSRLAAQQQMEGLLAPHRPKEPAWFLATVGVSPDHQGKGLGSAVVLPGVEAAERAGVPAFLETSAPRNLPFYERLGFTVTADVEVPEGPRTWCMTRKPGA
# B2: 22123 (protein)
# chain: MALPVTALLLPLALLLHAARPACEVQLLESGGGLIQPGGSLRLSCAASGFTFSSHAMTWVRQAPGKGLEWVSAISGSGDYTHYADSVKGRFTISRDNSKNTVYLQMNSLRAEDSAVYYCAKDEDGGSLLGHRGQGTLVTVSSGTGGGGSGGGGSGGGGSEFDIQMTQSPSSLSASVGDRVTITCKASDHINNWLAWYQQKPGQAPKLLIYGATTLETGVPSRFSGSGSGTDYTLTISSLQPEDFATYYCQQSWNTPWTFGQGTKLEIKRLEDLKNVFPPEVAVFEPSKAEIAHTQKATLVCLATGFYPDHVELSWWVNGKEVHSGVCTDPQPLKEQPALNDSRYCLSSRLRVSATFWQNPRNHFRCQVQFYGLSENDEWTQDRAKPVTQIVSAEAWGRADCGITSASYHQGVLSATILYEILLGKATLYAVLVSALVLMAMVKRKDSRGRAKRSGSGATNFSLLKQAGDVEENPGPTSATMDWIWRILFLVGAATGAHSGPQVQLQESGGGLAQAGGSLRLSCAASGRTFSMGWFRQAPGKEREFVAAITYSGGSPYYASSVRGRFTISRDNAKNTVYLQMNSLKPEDTAVYYCAANPTYGSDWNAENWGQGTQVTVSSGSGGGGSGGGGSGGGGSFEQVQLQQPGAELVKPGASVKMSCKASGYAFSSYWINWMKQKPGQGLEWIGQIYPGDGDTNYNGKFKGRATLTADTSSSTAYMQLSSLTSEDSAVYFCARSITTVVGCAMDYWGQGTSVTVSSTRIQNPDPAVYQLRDSKSSDKSVCLFTDFDSQTNVSQSKDSDVYITDKCVLDMRSMDFKSNSAVAWSNKSDFACANAFNNSIIPEDTFFPSSDVPCDVKLVEKSFETDTNLNFQNLSVIGFRILLLKVAGFNLLMTLRLWSSRAKRSGSGVKQTLNFDLLKLAGDVESNPGPSRGHMTEYKPTVRLATRDDVPRAVRTLAAAFADYPATRHTVDPDRHIERVTELQELFLTRVGLDIGKVWVADDGAAVAVWTTPESVEAGAVFAEIGPRMAELSGSRLAAQQQMEGLLAPHRPKEPAWFLATVGVSPDHQGKGLGSAVVLPGVEAAERAGVPAFLETSAPRNLPFYERLGFTVTADVEVPEGPRTWCMTRKPGA
# B3: 22132 (protein)
# chain: B2 chain with Q502E, Q506V, A513V, S560D, R563K
# B4: 22136 (protein)
# chain: MALPVTALLLPLALLLHAARPEVQLVESGGGLVQAGGSLRLSCAASGRTFSMGWFRQAPGKEREFVAAITYSGGSPYYADSVKGRFTISRDNAKNTVYLQMNSLKPEDTAVYYCAANPTYGSDWNAENWGQGTQVTVSSGTGGGGSGGGGSGGGGSEFDIQMTQSPSSLSASVGDRVTITCKASDHINNWLAWYQQKPGQAPKLLIYGATTLETGVPSRFSGSGSGTDYTLTISSLQPEDFATYYCQQSWNTPWTFGQGTKLEIKRLEDLKNVFPPEVAVFEPSEAEISHTQKATLVCLATGFYPDHVELSWWVNGKEVHSGVCTDPQPLKEQPALNDSRYCLSSRLRVSATFWQNPRNHFRCQVQFYGLSENDEWTQDRAKPVTQIVSAEAWGRADCGFTSESYQQGVLSATILYEILLGKATLYAVLVSALVLMAMVKRKDSRGRAKRSGSGATNFSLLKQAGDVEENPGPTSATMDWIWRILFLVGAATGAHSGPQVQLQESGGGLAQAGGSLRLSCAASGRTFSMGWFRQAPGKEREFVAAITYSGGSPYYASSVRGRFTISRDNAKNTVYLQMNSLKPEDTAVYYCAANPTYGSDWNAENWGQGTQVTVSSGSGGGGSGGGGSGGGGSFEQVQLQQPGAELVKPGASVKMSCKASGYAFSSYWINWMKQKPGQGLEWIGQIYPGDGDTNYNGKFKGRATLTADTSSSTAYMQLSSLTSEDSAVYFCARSITTVVGCAMDYWGQGTSVTVSSTRIQNPDPAVYQLRDSKSSDKSVCLFTDFDSQTNVSQSKDSDVYITDKCVLDMRSMDFKSNSAVAWSNKSDFACANAFNNSIIPEDTFFPSPESSCDVKLVEKSFETDTNLNFQNLSVIGFRILLLKVAGFNLLMTLRLWSSRAKRSGSGVKQTLNFDLLKLAGDVESNPGPSRGHMTEYKPTVRLATRDDVPRAVRTLAAAFADYPATRHTVDPDRHIERVTELQELFLTRVGLDIGKVWVADDGAAVAVWTTPESVEAGAVFAEIGPRMAELSGSRLAAQQQMEGLLAPHRPKEPAWFLATVGVSPDHQGKGLGSAVVLPGVEAAERAGVPAFLETSAPRNLPFYERLGFTVTADVEVPEGPRTWCMTRKPGA
# B5: 22226 (protein)
# chain: MALPVTALLLPLALLLHAARPACEVQLLESGGGLIQPGGSLRLSCAASGFTFSSHAMTWVRQAPGKGLEWVSAISGSGDYTHYADSVKGRFTISRDNSKNTVYLQMNSLRAEDSAVYYCAKDEDGGSLLGHRGQGTLVTVSSGTGPQGIFGQPGYINEFDIQMTQSPSSLSASVGDRVTITCKASDHINNWLAWYQQKPGQAPKLLIYGATTLETGVPSRFSGSGSGTDYTLTISSLQPEDFATYYCQQSWNTPWTFGQGTKLEIKRLEDLKNVFPPEVAVFEPSKAEIAHTQKATLVCLATGFYPDHVELSWWVNGKEVHSGVCTDPQPLKEQPALNDSRYCLSSRLRVSATFWQNPRNHFRCQVQFYGLSENDEWTQDRAKPVTQIVSAEAWGRADCGITSASYHQGVLSATILYEILLGKATLYAVLVSALVLMAMVKRKDSRGRAKRSGSGATNFSLLKQAGDVEENPGPTSATMDWIWRILFLVGAATGAHSGPEVQLVESGGGLVQAGGSLRLSCAASGRTFSMGWFRQAPGKEREFVAAITYSGGSPYYADSVKGRFTISRDNAKNTVYLQMNSLKPEDTAVYYCAANPTYGSDWNAENWGQGTQVTVSSGSGGGGSGGGGSGGGGSFEQVQLQQPGAELVKPGASVKMSCKASGYAFSSYWINWMKQKPGQGLEWIGQIYPGDGDTNYNGKFKGRATLTADTSSSTAYMQLSSLTSEDSAVYFCARSITTVVGCAMDYWGQGTSVTVSSTRIQNPDPAVYQLRDSKSSDKSVCLFTDFDSQTNVSQSKDSDVYITDKCVLDMRSMDFKSNSAVAWSNKSDFACANAFNNSIIPEDTFFPSPESSCDVKLVEKSFETDTNLNFQNLSVIGFRILLLKVAGFNLLMTLRLWSSRAKRSGSGVKQTLNFDLLKLAGDVESNPGPSRGHMTEYKPTVRLATRDDVPRAVRTLAAAFADYPATRHTVDPDRHIERVTELQELFLTRVGLDIGKVWVADDGAAVAVWTTPESVEAGAVFAEIGPRMAELSGSRLAAQQQMEGLLAPHRPKEPAWFLATVGVSPDHQGKGLGSAVVLPGVEAAERAGVPAFLETSAPRNLPFYERLGFTVTADVEVPEGPRTWCMTRKPGA
# Tested on: RS;411
# Test: JNG assay, co-culture with RS;411 cells
# Type: cell-based
# Settings: co-culture with RS411
# In short: (§1)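 Jurkat NFAT-GFP (JNG) cells stably transduced with SARs by lentivirus, with drug selection where the construct carried a resistance gene, then co-cultured with target cells at E:T ~1:2 for ~4–18 h. % GFP-positive cells measured by FACS against parental JNG; +/- to 5+ correspond to ~5–50% GFP-positive.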
row,Molecule,NFAT-GFP ASSAY: RS411
1,B1,"+/- (refer to approximately 5%, 10%, 20%, 30%, 40% and 50% GFP positive cells)"
2,B2,"4+ (refer to approximately 5%, 10%, 20%, 30%, 40% and 50% GFP positive cells)"
3,B3,"4+ (refer to approximately 5%, 10%, 20%, 30%, 40% and 50% GFP positive cells)"
4,B4,"+ (refer to approximately 5%, 10%, 20%, 30%, 40% and 50% GFP positive cells)"
5,B5,"+/- (refer to approximately 5%, 10%, 20%, 30%, 40% and 50% GFP positive cells)"

# Tested on: L363 cells
# Test: JNG assay, co-culture with L363 cells
# Type: cell-based
# Settings: co-culture with L363
# In short: as §1
row,Molecule,NFAT-GFP ASSAY: L363
1,B1,"+ (refer to approximately 5%, 10%, 20%, 30%, 40% and 50% GFP positive cells)"
2,B2,"3+ (refer to approximately 5%, 10%, 20%, 30%, 40% and 50% GFP positive cells)"
3,B3,"4+ (refer to approximately 5%, 10%, 20%, 30%, 40% and 50% GFP positive cells)"
4,B5,"+ (refer to approximately 5%, 10%, 20%, 30%, 40% and 50% GFP positive cells)"

# Tested on: RAJI cells
# Test: JNG assay, co-culture with RAJI cells
# Type: cell-based
# Settings: JNG cells expressing construct, co-culture with Raji
# In short: as §1
row,Molecule,NFAT-GFP ASSAY: Raji
1,B1,"+ (refer to approximately 5%, 10%, 20%, 30%, 40% and 50% GFP positive cells)"
2,B4,"3+ (refer to approximately 5%, 10%, 20%, 30%, 40% and 50% GFP positive cells)"
3,B5,"+/- (refer to approximately 5%, 10%, 20%, 30%, 40% and 50% GFP positive cells)"

# Tested on: Nalm6 cells
# Test: JNG assay, co-culture with Nalm6 cells
# Type: cell-based
# Settings: co-culture with Nalm6
# In short: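 Stable SAR lines in NFAT-GFP Jurkat background; coculture with target line ~4–18 h, E:T ~1:2; flow readout of GFP; positive if %GFP+ exceeds parental line; semi-quantitative grading +/- (~5%) through 5+ (~50%).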
row,Molecule,NFAT-GFP ASSAY: Nalm6
1,B1,"+/- (refer to approximately 5%, 10%, 20%, 30%, 40% and 50% GFP positive cells)"
2,B2,"5+ (refer to approximately 5%, 10%, 20%, 30%, 40% and 50% GFP positive cells)"
3,B3,"5+ (refer to approximately 5%, 10%, 20%, 30%, 40% and 50% GFP positive cells)"
4,B4,"+ (refer to approximately 5%, 10%, 20%, 30%, 40% and 50% GFP positive cells)"
5,B5,"+ (refer to approximately 5%, 10%, 20%, 30%, 40% and 50% GFP positive cells)"
